The values that follow come from article PMC8876964 (Pharmaceuticals, 2022).

The test system of data set [1] is BxPC-3 tumors. The data set is described as follows: Therapy studies in BxPC-3 tumor-bearing mice. Format: in vivo, athymic nude mice. How it is done:
Therapy studies were conducted in athymic nude mice bearing BxPC-3 tumors when the tumor volume reached about 100 mm^3. […] Tumor volumes and body weights were monitored three times a week. Individual tumor size was calculated using the formula (length × width × width)/2. The mice were euthanized when the tumor reached 1500 mm^3, ulceration of >4 mm was present, or significant stress due to weight loss. […] The doses were administered via tail vein and tumor size and mouse weights were recorded three times a week. Tumor volumes were plotted versus time to determine tumor growth inhibition.

A short description of data set [2]: Biodistribution in normal CD-1 mice. Format: in vivo. The following applies: mouse, iv, total radioactivity, 0.37 MBq i.v., n = 4–5, mean ± SD. How it is done:
The comparison of non-albumin binding and albumin binding peptides were evaluated in CD-1 mice at 1, 4, 24, and 48 h. ^177Lu-labeled peptides were prepared at the specific activity of 10 MBq/nmol. Mice (n = 4–5) were intravenously injected with 0.37 MBq (10 µCi) of respective radioligands diluted in 100 μL saline and sacrificed at specified time points. Selected organs were collected, weighed, and counted for activity. The results were reported as the percentage of the injected radioactivity per gram of tissue mass (% ID/g) and the radioactivity was calibrated using a known standard.

The nature of data set [3]: Biodistribution in mice bearing BxPC-3 tumor xenografts. Format: in vivo. The following applies: athymic nude, mouse, iv, total radioactivity, BxPC-3 tumor mice, 0.37 MBq i.v.; for tissue uptake at 1 h: 1 h p.i.; for tissue uptake at 48 h: 48 h p.i. How it is done:
Animals were supplied from Charles River Laboratories (Wilmington, MA, USA), and were handled in compliance with the Guidelines for Care and Use of Research Animals established by the Division of Comparative Medicine and the Animal Studies Committee of Washington University School of Medicine. Biodistribution studies were conducted in athymic nude mice bearing subcutaneous BxPC-3 tumors. Tumors were implanted on the right flank with 5 × 10^6 cells about 4 weeks before the performance of the experiments. Biodistribution studies were performed when the tumors reached approximately 5–7 mm in diameter. […] Tissues of interest (blood, lung, liver, spleen, kidney, muscle, heart, bone, and tumor) were collected and weighed, and the radioactivity was measured using a gamma counter. The results were expressed as the percentage of injected dose per gram of tissue (%ID/g).

The test system of data set [4] is DX3puroβ6 tumor. The following applies: mouse, in vivo; cited from earlier work.
Data set [5] relates to serum albumin. The following applies: cited from earlier work.
Data set [6] can be described thus: PET/CT imaging of BxPC-3 tumor-bearing mice. Format: in vivo. The following applies: athymic nude, mouse, iv, 3.7 MBq, total radioactivity. The protocol:
For blocking study, excess of unlabeled peptides was administered 1–2 min before radiotracer injection. The PET scans were acquired for 20 min on an Inveon small animal PET/CT scanner (Siemens Medical Solutions, Malvern, PA, USA). Static images were reconstructed with the maximum a posteriori (MAP) reconstruction algorithm and corrected for decay. Image analysis was performed using the Inveon Research Workstation image display software (Siemens). Regions of interest (ROI) were selected based on co-registered anatomical CT images, and the average or maximum standard uptake value (SUV) was calculated as the mean or maximum regional radioactivity concentration (nCi/cc) x animal weight (g)/decay-corrected amount of injected dose (nCi).

[7] abbreviates: blood, n = 4–5, mean ± SD, read-out: blood uptake.
Setting [8] is: n = 4–5, mean ± SD, read-out: tumor uptake.

Like-named read-outs stand apart in the source and are kept apart here. A value given as a limit tells only on which side of the number the result lay.

`CC(C)C[C@H](NC(=O)[C@H](CC(=O)O)NC(=O)CNC(=O)[C@H](CCCNC(=N)N)NC(=O)[C@H](CC(C)C)NC(=O)[C@H](CC(N)=O)NC(=O)[C@@H]1CCCN1C(=O)[C@@H](NC(=O)[C@H](C)NC(=O)[C@H](CC(N)=O)NC(=O)CCOCCOCCOCCOCCOCCOCCOCCOCCOCCOCCOCCOCCOCCOCCOCCOCCOCCOCCOCCOCCOCCOCCOCCOCCOCCOCCOCCOCCNC(=O)CCSC1CC(=O)N(CCC(=O)NCCNC(=O)[C@H](CCCCNC(=O)CN2CCN(CC(=O)O)CCN(CC(=O)O)CCN(CC(=O)O)CC2)NC(=O)c2ccc(-c3ccc(N=Nc4ccc5c(S(=O)(=O)O)cc(S(=O)(=O)O)c(N)c5c4O)cc3)cc2)C1=O)C(C)C)C(=O)N[C@@H](CCC(N)=O)C(=O)N[C@H](C(=O)N[C@@H](CC(C)C)C(=O)N[C@@H](C)C(=O)N[C@@H](CCC(N)=O)C(=O)N[C@@H](CCCCN)C(=O)N[C@H](C(=O)N[C@@H](C)C(=O)N[C@@H](CCCNC(=N)N)C(=O)N[C@H](C(=O)NCCOCCOCCOCCOCCOCCOCCOCCOCCOCCOCCOCCOCCOCCOCCOCCOCCOCCOCCOCCOCCOCCOCCOCCOCCOCCOCCOCCOCCC(N)=O)[C@@H](C)O)C(C)C)C(C)C` (stereo partly shown) [[^177Lu]Lu-EB-DOTA-(PEG28)2-A20FMDV2, metal not drawn]: the % intact in human serum was greater than 90%. Moreover, the “tumor volumes in comparison to the control group” value in data set [1] (single dose of 37 MBq, BxPC-3 tumor-bearing mice, n = 8, p < 0.001) was “significantly reduced”. Besides, in data set [1] (single dose of 37 MBq, two weeks after radiotracer injection), the mortality entry is on record as “death of all mice”. Besides, in data set [2] (blood), the tissue uptake at 1 h turned out to be 5.36 ± 1.06 %ID/g. Moreover, the tissue uptake at 48 h in data set [2] (blood, 48 h p.i., read-out: blood uptake) was 0.41 ± 0.03 %ID/g. In addition, the tissue uptake at 48 h in data set [2] (kidney, 48 h, read-out: kidney uptake) worked out at 44.3 ± 5.13 %ID/g. Moreover, in data set [3] (setting [7]), the tissue uptake at 1 h worked out at 4.8 ± 0.69 %ID/g and the tissue uptake at 48 h is 0.28 ± 0.01 %ID/g. For the same compound, in data set [3] (blood, 4 h, n = 4–5, mean ± SD), the tissue uptake at 4 h was 1.23 ± 0.3 %ID/g. Also, in data set [3] (setting [8]), the tissue uptake at 1 h was 5.2 ± 1.02 %ID/g and the tissue uptake at 48 h is 4.29 ± 0.78 %ID/g. Moreover, the tissue uptake in data set [3] (lung, liver, spleen, muscle, heart, bone, all time points (1, 4, 24, 48 h), read-out: uptake in normal organs such as lung, liver, spleen, muscle, heart, and bone) was less than 4 %ID/g.
As for NAVPNLRGDLQVLAQKVART [A20FMDV2], the tumor uptake in data set [4] is on record as 0.66 ± 0.09 % ID/g.
Consider `O=C(O)CCCc1ccc(I)cc1` [4-(p-iodophenyl)butyric acid], for which, in data set [5], the “non-covalent binding with serum albumin” value is recorded as “micromolar range”.
In the case of `CC(C)C[C@H](NC(=O)[C@H](CC(=O)O)NC(=O)CNC(=O)[C@H](CCCNC(=N)N)NC(=O)[C@H](CC(C)C)NC(=O)[C@H](CC(N)=O)NC(=O)[C@@H]1CCCN1C(=O)[C@@H](NC(=O)[C@H](C)NC(=O)[C@H](CC(N)=O)NC(=O)CCOCCOCCOCCOCCOCCOCCOCCOCCOCCOCCOCCOCCOCCOCCOCCOCCOCCOCCOCCOCCOCCOCCOCCOCCOCCOCCOCCOCCNC(=O)CN1CCN(CC(=O)O)CCN(CC(=O)O)CCN(CC(=O)O)CC1)C(C)C)C(=O)N[C@@H](CCC(N)=O)C(=O)N[C@H](C(=O)N[C@@H](CC(C)C)C(=O)N[C@@H](C)C(=O)N[C@@H](CCC(N)=O)C(=O)N[C@@H](CCCCN)C(=O)N[C@H](C(=O)N[C@@H](C)C(=O)N[C@@H](CCCNC(=N)N)C(=O)N[C@H](C(=O)NCCOCCOCCOCCOCCOCCOCCOCCOCCOCCOCCOCCOCCOCCOCCOCCOCCOCCOCCOCCOCCOCCOCCOCCOCCOCCOCCOCCOCCC(N)=O)[C@@H](C)O)C(C)C)C(C)C` [[^68Ga]Ga-DOTA-(PEG28)2-A20FMDV2, metal not drawn], the SUV at 1 h was found to be 1.71 ± 0.04 SUV in data set [6] (mice receiving blocking agent (excess unlabeled peptide 1–2 min before), 1 h after 3.7 MBq i.v., n = 3, read-out: tumor SUVmax); 1.22 ± 0.12 SUV in data set [6] (mice receiving blocking agent (excess unlabeled peptide 1–2 min before), 1 h after 3.7 MBq i.v., n = 3, read-out: tumor SUVmean); 3.85 ± 1.06 SUV in data set [6] (non-block mice, 1 h after i.v. injection of 3.7 MBq, n = 3, read-out: tumor SUVmax); 2.77 ± 0.38 SUV in data set [6] (non-block mice, 1 h after i.v. injection of 3.7 MBq, n = 3, read-out: tumor SUVmean).
Take `Cc1cc(-c2ccc(/N=N/c3ccc4c(S(=O)(=O)O)cc(S(=O)(=O)O)c(N)c4c3O)c(C)c2)ccc1/N=N/c1ccc2c(S(=O)(=O)O)cc(S(=O)(=O)O)c(N)c2c1O` [Evans Blue]: the “IC50 of reversible binding to serum albumin” value in data set [5] was “micromolar range”.
As to `CC(C)C[C@H](NC(=O)[C@H](CC(=O)O)NC(=O)CNC(=O)[C@H](CCCNC(=N)N)NC(=O)[C@H](CC(C)C)NC(=O)[C@H](CC(N)=O)NC(=O)[C@@H]1CCCN1C(=O)[C@@H](NC(=O)[C@H](C)NC(=O)[C@H](CC(N)=O)NC(=O)CCOCCOCCOCCOCCOCCOCCOCCOCCOCCOCCOCCOCCOCCOCCOCCOCCOCCOCCOCCOCCOCCOCCOCCOCCOCCOCCOCCOCCNC(=O)CN1CCN(CC(=O)O)CCN(CC(=O)O)CCN(CC(=O)O)CC1)C(C)C)C(=O)N[C@@H](CCC(N)=O)C(=O)N[C@H](C(=O)N[C@@H](CC(C)C)C(=O)N[C@@H](C)C(=O)N[C@@H](CCC(N)=O)C(=O)N[C@@H](CCCCN)C(=O)N[C@H](C(=O)N[C@@H](C)C(=O)N[C@@H](CCCNC(=N)N)C(=O)N[C@H](C(=O)NCCOCCOCCOCCOCCOCCOCCOCCOCCOCCOCCOCCOCCOCCOCCOCCOCCOCCOCCOCCOCCOCCOCCOCCOCCOCCOCCOCCOCCC(N)=O)[C@@H](C)O)C(C)C)C(C)C` [metal not drawn], the body weight change result in data set [1] (27.8 MBq, n = 8, during the course of the study) was “no significant weight loss”. Moreover, in data set [1] (27.8 MBq, n = 8, until day 23 (p < 0.001 for the IBA peptide)), the “tumor inhibition in comparison to control group” value is reported as “did not show significant tumor growth inhibition”. In addition, the tissue uptake at 1 h in data set [2] (blood) was 0.11 ± 0.04 %ID/g.
